Changes are numbered by the printed parent chain. Numbers in names are those of the source. Entries after “also recorded” stand apart in the source; their conditions may differ.

For one experiment, the system named is EGFRvIII CARTs. Description: Cytokine production of EGFRvIII CARTs stimulated by ligand-presenting MSRs. Format: cell-based. The conditions noted are these: lipid-coated MSRs, multiplex cytokine analysis.
Experiment [1] relates to human dermal lymphatic endothelial cells (HDLECs). Nature of the experiment: HDLECs sprouting (tube formation) assay. Format: cell-based. The conditions noted are these: 600 μg of VEGF-C protein, overnight, phalloidin staining. The procedure:
Human Dermal Lymphatic Endothelial Cells (HDLECs) were seeded (p0) and passaged at 75% confluence until p4 or enough cells were obtained for experiments. One ml was then aliquoted into Eppendorf tubes, treated with 600 μg of VEGF-C protein, and vortexed. Each treatment was added to warmed media in a 6 well plate and incubated overnight at 37 C (5% CO2). For imaging analysis cells were washed and then fixed with 3.7% formalin-0.05% Triton X-100 solution (fixing buffer), then washed and coated with 0.1% Triton X-100 solution (permeabilization buffer). After washing twice with PBS cells were coated with 0.05% Triton X-100 in 1% BSA solution (blocking buffer). DAPI and phalloidin staining was performed according to known protocols. After staining cells were washed twice with PBS and imaged.
An overview of the experimental setup of the in vitro sprouting assay on HDLECs to test the biological activity of VEGF-C variants is shown in FIG. 20A. HDLECs were first seeded (p0) and passaged at 75% confluence until p4 or enough cells were obtained for experiments. About 1 mL of the HDLECs was then aliquoted into Eppendorf tubes, treated with 600 μg of VEGF-C protein, and vortexed. Each treatment was added to warmed media in a 6 well plate and incubated overnight at 37 C (5% CO2). For imaging analysis, cells were washed and then fixed with 3.7% formalin-0.05% Triton X-100 solution (fixing buffer), then washed and coated with 0.1% Triton X-100 solution (permeabilization buffer). After washing twice with PBS, cells were coated with 0.05% Triton X-100 in 1% BSA solution (blocking buffer). DAPI and phalloidin staining was performed according to known protocols. After phalloidin staining, cells were washed twice with PBS, and imaged for tube formation.

The test system of experiment [2] is lymphatic endothelial cells (LECs). Description: In vivo lymphangiogenesis in mouse skin after cryogel delivery (flow cytometry). More on the design: species or system C57/BL6 mice. As to conditions: for in vivo lymphangiogenesis (LEC counts per mg of tissue): 10 μg VEGF-C in cryogel (0.25 mg/ml laponite), day 14. The procedure:
(§1) Tissues were harvested from mice, weighted, and cut into very fine pieces with scissors. Samples were then enzymatically digested under constant stirring in of digestion media containing collagenase 4 and DNAse 1. Samples were then pipetted up and down. Following pipetting, digestion media containing collagenase D and DNAse 1 was added to the samples. Samples were pipetted up and down for 3 cycles. EDTA was added (5 mM) and cells were filtered through 70 μm filters and 40 uM mesh and resuspended in Fc blocking buffer. Cells were washed and stained for FACS analysis.
(§2) Cryogels (0.25 mg/ml laponite) containing 10 μg of different VEGF-C constructs were injected superficially into the dermis mice (N=5/group) at day 0. At day 14 mice were euthanized and the skin/cryogel (combined) were dissected for digestion and FACS analysis. Representative FACS plots of LECs (CD31^+, PDPN^+) are pre-gated on FSC-A/SSC-A, and CD45^− (FIG. 22). The results of FIG. 23 bear on the delivery of VEGF-C. Mice were injected with VEGF-C (N=12) or blank cryogels (N=10) synthesized as previously mentioned. Skin/gels from mice were harvested at timepoints day 7, 14, and 21, digested, and stained for FACS. LECs were gated on CD45^− CD31^+ PDPN^+. BECs were gated on CD45^− CD31^+ PDPN^−. CD4 and CD8 T Cells were gated on CD45^+ CD11b^−CD11c^−Thy1^+.
First, cryogels (0.25 mg/ml laponite) containing 10 μg of different VEGF-C forms, including the dimeric forms of the major and minor mature forms that are wild-type (#2 and #7, respectively) and the major and minor mature forms that comprise the C137A mutation (#9 and #8, respectively), were injected superficially into the dermis of mice (N=5/group) at day 0. At day 14 mice were euthanized and the skin/cryogel (combined) were dissected for digestion and FACS analysis (FIG. 22A). Specifically, tissues were harvested from mice, weighted, and cut into very fine pieces with scissors. Samples were then enzymatically digested under constant stirring of digestion media containing collagenase 4 and DNAse 1. Samples were then pipetted up and down. Following pipetting, digestion media containing collagenase D and DNAse 1 was added to the samples. Samples were pipetted up and down for 3 cycles. EDTA was added (5 mM) and cells were filtered through 70 μm filters and 40 μM mesh and resuspended in Fc blocking buffer. Cells were washed and stained for FACS analysis.
In addition, the response of skin lymphatics to […] VEGF-C delivered by alginate cryogels was measured. […] Skin/gels from mice were harvested as described above, at timepoints day 7, 14, and 21, digested, and stained for FACS. LECs were gated on CD45^− CD31^+ PDPN^+. BECs were gated on CD45^− CD31^+ PDPN^−. […] The number of cells per mg of tissue were also quantified.

In experiment [3] the test system is CD4+ T cells and CD8+ T cells. Description: Immune infiltration of mouse skin after cryogel delivery (flow cytometry). The experiment is classed as in vivo, C57/BL6 mice. The conditions noted are these: skin on top of the cryogels. The procedure:
as §1
as §2, with “BECs were gated on CD45^− CD31^+ PDPN^−. CD4 and CD8 T Cells were gated on CD45^+ CD11b^−CD11c^−Thy1^+.” left out
In addition, the response of skin lymphatics to […] VEGF-C delivered by alginate cryogels was measured. […] The number of cells per mg of tissue were also quantified.

Description for EGFRvIII CARTs: Briefly, liposomes primarily composed of POPC with 1 mol % PE-biotin were formed using a thin film rehydration method and extrusion through a 100 nm polycarbonate membrane. Hydroxyl functionalized MSRs were incubated with the liposomes to allow the formation of a supported lipid bilayer on the MSR surface (FIG. 6). To functionalize the MSRs with CD3 and CD28 agonistic antibodies, MSRs were washed several times with PBS, incubated with streptavidin, and then tethered with biotinylated CD3 and CD28 antibodies. For MSR-immobilization of EGFRvIII CAR-binding peptides, a biotinylated EGFRvIII CAR-binding peptide was used (FIG. 7).
After incubation with the desired ligands, MSRs were washed several times with PBS and resuspended in culture medium at various concentrations and incubated with T cells. […] Cytokine production was assessed using a multiplex cytokine analysis method (Mesoscale Delivery V-Plex).

Take “EGFRvIII CAR-binding peptide bound to the surface of the MSRs: biotinylated peptide LEEKKGNYVVTDH (SEQ ID NO: 756) coupled via streptavidin to lipid-coated MSRs”: the “interferon gamma and IL-2 production” value with EGFRvIII CARTs was “produced interferon gamma and IL-2”. On the same count and under the same terms, for “free EGFRvIII CAR-binding peptide in solution: EGFRvIII CAR-binding peptide LEEKKGNYVVTDH (SEQ ID NO: 756) [reference compound]” the value was “no response”.

B1: #9: major mature VEGF-C (112-227) with C137A mutation, SEQ ID NO: 737 (His) / 738 (protein)
chain: AHYNTEILKSIDNEWRKTQCMPREVAIDVGKEFGVATNTFFKPPCVSVYRCGGCCNSEGLQCMNTSTSYLSKTLFEITVPLSQGPKPVTISFANHTSCRCMSKLDVYRQVHSIIRR
B1: the “sprouting of HDLECs (tube formation)” value in experiment [1] is reported as “better sprouting of HDLECs than the immature form”. The “in vivo lymphangiogenesis (LEC counts per mg of tissue)” value in experiment [2] (skin) is “high in vivo lymphangiogenesis; also recorded: higher amounts of LECs compared to the dimers of the major and minor mature forms that are wild-type”.

B2: #2: major mature VEGF-C (112-227), wild type, SEQ ID NO: 731 (His) / 732 (protein, listed as Homo sapiens)
chain: B1 chain with A26C
Turning to B2, the “sprouting of HDLECs (tube formation)” value in experiment [1] is recorded as “better sprouting of HDLECs than the immature form”.

B3: #8: minor mature VEGF-C (103-227) with C137A mutation, SEQ ID NO: 735 (His) / 736 (protein)
chain: TEETIKFAAAHYNTEILKSIDNEWRKTQCMPREVAIDVGKEFGVATNTFFKPPCVSVYRCGGCCNSEGLQCMNTSTSYLSKTLFEITVPLSQGPKPVTISFANHTSCRCMSKLDVYRQVHSIIRR
On to B3, for which the “sprouting of HDLECs (tube formation)” value in experiment [1] is “better sprouting of HDLECs than the immature form”. Also, in experiment [3], the “day of peak T cell / immune infiltration after cryogel delivery” value turned out to be 14 days. In experiment [2] (skin), the “in vivo lymphangiogenesis (LEC counts per mg of tissue)” value was “high in vivo lymphangiogenesis; also recorded: higher amounts of LECs compared to the dimers of the major and minor mature forms that are wild-type”. For the same molecule, in experiment [2] (skin, 14 days after cryogel delivery), the “blood vascular endothelial cells (BECs, CD45−CD31+PDPN−)” value was “not affected”.

B4: #7: minor mature VEGF-C (103-227), wild type, SEQ ID NO: 733 (His) / 734 (protein, listed as Homo sapiens)
chain: B3 chain with A35C
As to B4, the “sprouting of HDLECs (tube formation)” value in experiment [1] is “better sprouting of HDLECs than the immature form”. In addition, the “time of peak lymphangiogenesis after cryogel delivery” value in experiment [2] (10 μg VEGF-C in alginate cryogel, subcutaneous) is recorded as 14 days.

For the origin of these results see patent US20230302155A1, “COMPOSITIONS AND METHODS FOR IN VIVO GENERATION OF CAR EXPRESSING CELLS” (Novartis AG, priority 2020, published 2023).
